US20130058935A1 (INSTITUTE FOR CANCER RESEARCH, published 2013)

Biological target: T1, mouse TEM7R extracellular domain, 6xHis-tagged, secreted (mouse, UniProt Q9DC11 31-455)
T1 construct: extracellular domain; also called mTEM7R ECD; TEM7R ECD; not shown: 6xHis tag from the pSecTag2/Hygro A vector
Experiment: SPR (BIAcore), ECD immobilised on CM5 chip, 1:1 Langmuir fit
Procedure: scFvs were expressed in E. coli and purified by sequential IMAC and size exclusion chromatography (Robinson, M K et al. (2005) Cancer Research 65:1471-8). Binding of the TEM7R scFv, to extracellular domain (ECDs) was characterized by SPR using TEM7R ECD as the target antigen (Yuan, Q A et al. (2006) Mol. Cancer Ther. 5:2096-105). ECD was diluted to 10 μg/mL in 10 mM sodium acetate pH 5.2 and approximately 200 RU of ECD were immobilized onto CM5 sensor chips via NHS-ester chemistry.
Kinetic constants for A5 were determined by passing serially diluted samples (0 nM to 2 μM) over flow cells at flow rate of 40 μL/min. Response against an ErbB2 coated flow cell was used as a negative control and subtracted from the response generated against the TEM7R ECD to obtain the final sensorgrams. Data was evaluated using BIAEvaluation 3.2 software (BIAcore, Piscataway, N.J.) and fit using the 1:1 Langmuir binding model. Flow cells were regenerated by sequential 15-second pulses with 10 mM glycine, pH 2 and 50 mM Triethylamine, pH 10 followed by equilibration with PBS running buffer.

T1 sequence (Q9DC11 31-455): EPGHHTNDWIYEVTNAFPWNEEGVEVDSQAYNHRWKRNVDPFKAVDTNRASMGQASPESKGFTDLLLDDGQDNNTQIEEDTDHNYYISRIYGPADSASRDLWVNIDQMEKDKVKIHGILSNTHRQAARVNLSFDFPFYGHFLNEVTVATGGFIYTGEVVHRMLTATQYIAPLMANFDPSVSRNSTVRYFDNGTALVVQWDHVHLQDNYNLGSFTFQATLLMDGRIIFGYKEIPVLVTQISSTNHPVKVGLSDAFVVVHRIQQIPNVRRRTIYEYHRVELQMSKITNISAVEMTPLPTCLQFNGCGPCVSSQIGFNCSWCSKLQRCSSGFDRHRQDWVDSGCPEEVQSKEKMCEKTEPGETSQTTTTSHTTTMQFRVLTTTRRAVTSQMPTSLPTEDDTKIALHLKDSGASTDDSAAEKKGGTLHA

B1: anti-mTEM7R scFv#4 (scFv)
scFv: MAQVQLVESGGGLVQPGGSLRLSCAASGFTFSSYEMNWVRQAPGKGLEWVSYISSSGSTIYYADSVKGRFTISRDNSKNTLYLQMNSLRAEDTAVYYCASGDYMDVWGQGTTVTVSSSASGAELGGGGSGGGGSGGGGSTSDIQLTQSPSSLSASVGDRVTITCQASQDISNYLNWYQQKPGKAPKLLMYDASNLETGVPSRFSGSGSGTDFTFTISSLQPEDFATYYCQQSDNLPYTFGQGTKVDIKRS
notes: Human scFv from a naive phage library, expressed in E. coli TG1 (pUC119mycHis / pSYN2) and purified by Ni-NTA, so it carries a His tag; also called clone 4; anti-TEM7R scFv
Kd: 10 nM
